Values belong to the binder of their own block, whether it stands above or below them.
Biological target: T1, FcγRIIa R (human, UniProt P12318 34-217)
T1 construct: extracellular domain; also called FcgRIIa R type; 2aR
T1 sequence (looked up): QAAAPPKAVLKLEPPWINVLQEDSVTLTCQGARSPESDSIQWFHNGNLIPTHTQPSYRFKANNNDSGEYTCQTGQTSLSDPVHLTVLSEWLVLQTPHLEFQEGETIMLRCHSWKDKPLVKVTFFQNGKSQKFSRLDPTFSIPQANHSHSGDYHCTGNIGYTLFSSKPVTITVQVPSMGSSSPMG
Assay: SPR (Biacore), captured antibody, FcγR as analyte; relative binding activity
Procedure: Analysis of interaction between objective antibody and the FcγR was carried out using Biacore T100 (GE Healthcare). HBS-EP+ (GE Healthcare) was used as the running buffer, and the measurement temperature was set to 25° C. Chips produced by immobilizing the antigen peptide by the amine coupling method to a Series S Sencor Chip CM5 (GE Healthcare), or alternatively, chips produced by allowing preliminarily biotinylated antigen peptides to interact with and immobilize onto a Series S Sensor Chip SA (certified) (GE Healthcare) were used. Antibodies of interest were captured onto an antigen peptide-immobilized chip, and allowed to interact to each FcγR diluted with running buffer. To regenerate and repeatedly use the chip, the antibodies captured on the chip were washed off by reacting 10 mM glycine-HCl, pH 1.5.

Ho/Con_2aR: 116 % (GpH7-B3/GpL16-k0 = 100)
B2: GpH7-B3 variant P238_03V/GpL16-k0 (antibody, human IgG1, kappa)
heavy: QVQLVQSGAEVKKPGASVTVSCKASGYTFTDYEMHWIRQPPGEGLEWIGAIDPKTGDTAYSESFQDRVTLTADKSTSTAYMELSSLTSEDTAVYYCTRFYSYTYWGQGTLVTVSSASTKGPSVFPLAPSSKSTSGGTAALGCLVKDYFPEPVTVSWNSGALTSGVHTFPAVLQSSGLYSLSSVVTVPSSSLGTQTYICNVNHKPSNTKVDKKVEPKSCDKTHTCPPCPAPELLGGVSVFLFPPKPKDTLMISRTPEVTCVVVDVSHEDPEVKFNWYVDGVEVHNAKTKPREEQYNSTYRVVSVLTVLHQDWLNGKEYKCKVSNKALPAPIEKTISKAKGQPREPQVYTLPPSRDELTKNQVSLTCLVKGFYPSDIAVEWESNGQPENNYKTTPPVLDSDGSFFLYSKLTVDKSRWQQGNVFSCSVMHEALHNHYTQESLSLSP
light: DIVMTQSPLSLPVTPGEPASISCQASESLVHSNRNTYLHWYLQKPGQSPQLLIYKVSNRFSGVPDRFSGSGSGTDFTLKISRVEAEDVGVYYCSQNTHVPPTFGQGTKVEIERTVAAPSVFIFPPSDEQLKSGTASVVCLLNNFYPREAKVQWKVDNALQSGNSQESVTEQDSKDSTYSLSSTLTLSKADYEKHKVYACEVTHQGLSSPVTKSFNRGEC
notes: also called Ho Ab P238_03V

Ho/Con_2aR: 73 % (GpH7-B3/GpL16-k0 = 100)
B5: GpH7-B3 variant L235_09D/GpL16-k0 (antibody, human IgG1, kappa)
heavy: not shown
light: DIVMTQSPLSLPVTPGEPASISCQASESLVHSNRNTYLHWYLQKPGQSPQLLIYKVSNRFSGVPDRFSGSGSGTDFTLKISRVEAEDVGVYYCSQNTHVPPTFGQGTKVEIERTVAAPSVFIFPPSDEQLKSGTASVVCLLNNFYPREAKVQWKVDNALQSGNSQESVTEQDSKDSTYSLSSTLTLSKADYEKHKVYACEVTHQGLSSPVTKSFNRGEC
notes: also called Ho Ab L235_09D

Ho/Con_2aR: 97 % (GpH7-B3/GpL16-k0 = 100)
B6: GpH7-B3 variant L328_02A/GpL16-k0 (antibody, human IgG1, kappa)
heavy: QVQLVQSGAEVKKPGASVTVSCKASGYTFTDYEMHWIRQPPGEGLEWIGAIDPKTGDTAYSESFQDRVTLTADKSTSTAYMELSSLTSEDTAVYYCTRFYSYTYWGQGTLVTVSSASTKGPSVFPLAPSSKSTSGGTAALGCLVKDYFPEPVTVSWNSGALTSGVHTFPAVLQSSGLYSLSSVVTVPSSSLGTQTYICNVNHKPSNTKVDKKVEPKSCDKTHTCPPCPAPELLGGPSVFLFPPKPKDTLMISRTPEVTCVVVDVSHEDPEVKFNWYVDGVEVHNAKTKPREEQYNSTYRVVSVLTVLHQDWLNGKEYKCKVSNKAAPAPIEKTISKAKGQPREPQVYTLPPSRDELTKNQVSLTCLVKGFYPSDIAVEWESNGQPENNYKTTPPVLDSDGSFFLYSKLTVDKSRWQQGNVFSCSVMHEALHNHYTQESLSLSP
light: DIVMTQSPLSLPVTPGEPASISCQASESLVHSNRNTYLHWYLQKPGQSPQLLIYKVSNRFSGVPDRFSGSGSGTDFTLKISRVEAEDVGVYYCSQNTHVPPTFGQGTKVEIERTVAAPSVFIFPPSDEQLKSGTASVVCLLNNFYPREAKVQWKVDNALQSGNSQESVTEQDSKDSTYSLSSTLTLSKADYEKHKVYACEVTHQGLSSPVTKSFNRGEC
notes: also called Ho Ab L328_02A

Ho/Con_2aR: 114 % (GpH7-B3/GpL16-k0 = 100)
B8: GpH7-B3 variant L235_20W/GpL16-k0 (antibody, human IgG1, kappa)
heavy: not shown
light: DIVMTQSPLSLPVTPGEPASISCQASESLVHSNRNTYLHWYLQKPGQSPQLLIYKVSNRFSGVPDRFSGSGSGTDFTLKISRVEAEDVGVYYCSQNTHVPPTFGQGTKVEIERTVAAPSVFIFPPSDEQLKSGTASVVCLLNNFYPREAKVQWKVDNALQSGNSQESVTEQDSKDSTYSLSSTLTLSKADYEKHKVYACEVTHQGLSSPVTKSFNRGEC
notes: also called Ho Ab L235_20W

Ho/Con_2aR: 37.8 % (GpH7-B3/GpL16-k0 = 100)
B11: GpH7-B3 variant N325_03V/GpL16-k0 (antibody, human IgG1, kappa)
heavy: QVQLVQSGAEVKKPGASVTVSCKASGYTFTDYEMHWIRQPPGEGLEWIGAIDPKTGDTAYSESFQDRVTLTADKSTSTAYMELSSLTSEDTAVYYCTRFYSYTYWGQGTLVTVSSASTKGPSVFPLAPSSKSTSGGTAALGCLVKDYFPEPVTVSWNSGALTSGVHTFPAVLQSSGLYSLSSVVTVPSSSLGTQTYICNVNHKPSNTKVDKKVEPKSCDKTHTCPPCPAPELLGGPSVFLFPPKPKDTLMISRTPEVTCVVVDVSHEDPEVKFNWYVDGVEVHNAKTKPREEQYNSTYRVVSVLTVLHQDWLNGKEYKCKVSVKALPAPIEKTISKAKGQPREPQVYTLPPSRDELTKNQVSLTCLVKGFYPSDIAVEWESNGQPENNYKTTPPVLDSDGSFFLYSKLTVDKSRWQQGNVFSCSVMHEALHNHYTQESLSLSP
light: DIVMTQSPLSLPVTPGEPASISCQASESLVHSNRNTYLHWYLQKPGQSPQLLIYKVSNRFSGVPDRFSGSGSGTDFTLKISRVEAEDVGVYYCSQNTHVPPTFGQGTKVEIERTVAAPSVFIFPPSDEQLKSGTASVVCLLNNFYPREAKVQWKVDNALQSGNSQESVTEQDSKDSTYSLSSTLTLSKADYEKHKVYACEVTHQGLSSPVTKSFNRGEC
notes: also called Ho Ab N325_03V

Ho/Con_2aR: 74.8 % (GpH7-B3/GpL16-k0 = 100)
B13: GpH7-B3 variant N325_09D/GpL16-k0 (antibody, human IgG1, kappa)
heavy: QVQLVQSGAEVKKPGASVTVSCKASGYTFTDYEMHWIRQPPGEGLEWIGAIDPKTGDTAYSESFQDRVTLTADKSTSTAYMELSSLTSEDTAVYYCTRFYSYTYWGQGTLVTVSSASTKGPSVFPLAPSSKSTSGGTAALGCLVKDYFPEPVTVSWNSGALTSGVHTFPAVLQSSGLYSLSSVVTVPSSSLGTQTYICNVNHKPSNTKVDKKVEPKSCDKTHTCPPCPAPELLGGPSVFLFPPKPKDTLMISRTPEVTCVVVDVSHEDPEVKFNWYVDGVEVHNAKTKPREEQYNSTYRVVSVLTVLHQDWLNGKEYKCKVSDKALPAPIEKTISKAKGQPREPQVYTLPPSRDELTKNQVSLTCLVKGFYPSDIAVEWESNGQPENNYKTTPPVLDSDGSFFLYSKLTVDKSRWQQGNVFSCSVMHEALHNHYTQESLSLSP
light: DIVMTQSPLSLPVTPGEPASISCQASESLVHSNRNTYLHWYLQKPGQSPQLLIYKVSNRFSGVPDRFSGSGSGTDFTLKISRVEAEDVGVYYCSQNTHVPPTFGQGTKVEIERTVAAPSVFIFPPSDEQLKSGTASVVCLLNNFYPREAKVQWKVDNALQSGNSQESVTEQDSKDSTYSLSSTLTLSKADYEKHKVYACEVTHQGLSSPVTKSFNRGEC
notes: also called Ho Ab N325_09D

Ho/Con_2aR: 49.9 % (GpH7-B3/GpL16-k0 = 100)
B14: GpH7-B3 variant N325_10E/GpL16-k0 (antibody, human IgG1, kappa)
heavy: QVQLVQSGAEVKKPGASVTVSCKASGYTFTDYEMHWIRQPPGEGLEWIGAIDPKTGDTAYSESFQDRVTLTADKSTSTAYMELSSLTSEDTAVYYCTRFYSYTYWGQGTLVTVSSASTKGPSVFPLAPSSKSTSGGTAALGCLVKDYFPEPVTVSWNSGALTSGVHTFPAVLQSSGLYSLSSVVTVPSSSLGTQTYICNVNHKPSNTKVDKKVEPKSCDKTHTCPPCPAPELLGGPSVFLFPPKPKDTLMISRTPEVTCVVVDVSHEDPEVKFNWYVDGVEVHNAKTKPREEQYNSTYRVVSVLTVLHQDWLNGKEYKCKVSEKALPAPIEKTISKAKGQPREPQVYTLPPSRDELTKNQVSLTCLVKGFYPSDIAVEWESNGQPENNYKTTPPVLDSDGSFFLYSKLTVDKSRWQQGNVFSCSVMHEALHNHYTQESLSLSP
light: DIVMTQSPLSLPVTPGEPASISCQASESLVHSNRNTYLHWYLQKPGQSPQLLIYKVSNRFSGVPDRFSGSGSGTDFTLKISRVEAEDVGVYYCSQNTHVPPTFGQGTKVEIERTVAAPSVFIFPPSDEQLKSGTASVVCLLNNFYPREAKVQWKVDNALQSGNSQESVTEQDSKDSTYSLSSTLTLSKADYEKHKVYACEVTHQGLSSPVTKSFNRGEC
notes: also called Ho Ab N325_10E

Ho/Con_2aR: 60.2 % (GpH7-B3/GpL16-k0 = 100)
B19: GpH7-B3 variant N325_14T/GpL16-k0 (antibody, human IgG1, kappa)
heavy: not shown
light: DIVMTQSPLSLPVTPGEPASISCQASESLVHSNRNTYLHWYLQKPGQSPQLLIYKVSNRFSGVPDRFSGSGSGTDFTLKISRVEAEDVGVYYCSQNTHVPPTFGQGTKVEIERTVAAPSVFIFPPSDEQLKSGTASVVCLLNNFYPREAKVQWKVDNALQSGNSQESVTEQDSKDSTYSLSSTLTLSKADYEKHKVYACEVTHQGLSSPVTKSFNRGEC
notes: also called Ho Ab N325_14T

Ho/Con_2aR: 68.8 % (GpH7-B3/GpL16-k0 = 100)
B20: GpH7-B3 variant L328_09D/GpL16-k0 (antibody, human IgG1, kappa)
heavy: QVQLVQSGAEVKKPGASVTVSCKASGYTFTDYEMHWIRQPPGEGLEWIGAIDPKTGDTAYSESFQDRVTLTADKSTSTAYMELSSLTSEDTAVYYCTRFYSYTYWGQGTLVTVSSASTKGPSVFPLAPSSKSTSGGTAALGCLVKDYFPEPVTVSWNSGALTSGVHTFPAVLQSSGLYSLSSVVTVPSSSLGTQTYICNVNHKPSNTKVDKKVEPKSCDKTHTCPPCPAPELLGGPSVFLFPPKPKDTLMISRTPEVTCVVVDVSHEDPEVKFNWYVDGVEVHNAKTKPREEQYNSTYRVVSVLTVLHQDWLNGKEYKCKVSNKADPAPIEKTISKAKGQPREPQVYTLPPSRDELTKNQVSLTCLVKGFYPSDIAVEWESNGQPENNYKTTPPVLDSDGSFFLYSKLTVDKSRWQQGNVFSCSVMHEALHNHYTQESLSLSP
light: DIVMTQSPLSLPVTPGEPASISCQASESLVHSNRNTYLHWYLQKPGQSPQLLIYKVSNRFSGVPDRFSGSGSGTDFTLKISRVEAEDVGVYYCSQNTHVPPTFGQGTKVEIERTVAAPSVFIFPPSDEQLKSGTASVVCLLNNFYPREAKVQWKVDNALQSGNSQESVTEQDSKDSTYSLSSTLTLSKADYEKHKVYACEVTHQGLSSPVTKSFNRGEC
notes: also called Ho Ab L328_09D

More lines, now with the values behind:

B1: GpH7-B3 variant L235_04F/GpL16-k0 (antibody, human IgG1, kappa)
heavy: not shown
light: DIVMTQSPLSLPVTPGEPASISCQASESLVHSNRNTYLHWYLQKPGQSPQLLIYKVSNRFSGVPDRFSGSGSGTDFTLKISRVEAEDVGVYYCSQNTHVPPTFGQGTKVEIERTVAAPSVFIFPPSDEQLKSGTASVVCLLNNFYPREAKVQWKVDNALQSGNSQESVTEQDSKDSTYSLSSTLTLSKADYEKHKVYACEVTHQGLSSPVTKSFNRGEC
notes: also called Ho Ab L235_04F
Ho/Con_2aR: 98.9 % (GpH7-B3/GpL16-k0 = 100)

B3: GpH7-B3 variant N325_06M/GpL16-k0 (antibody, human IgG1, kappa)
heavy: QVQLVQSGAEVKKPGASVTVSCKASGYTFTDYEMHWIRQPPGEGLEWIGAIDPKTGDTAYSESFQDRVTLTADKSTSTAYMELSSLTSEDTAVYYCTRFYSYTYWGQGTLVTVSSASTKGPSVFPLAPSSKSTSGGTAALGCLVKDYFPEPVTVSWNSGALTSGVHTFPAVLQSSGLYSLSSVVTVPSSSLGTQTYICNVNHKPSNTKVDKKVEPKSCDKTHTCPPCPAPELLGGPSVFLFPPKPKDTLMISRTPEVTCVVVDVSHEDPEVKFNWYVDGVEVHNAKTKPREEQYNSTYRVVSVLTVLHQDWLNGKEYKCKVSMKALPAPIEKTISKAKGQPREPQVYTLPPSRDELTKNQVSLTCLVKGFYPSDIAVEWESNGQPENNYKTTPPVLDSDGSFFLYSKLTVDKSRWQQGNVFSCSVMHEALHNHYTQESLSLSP
light: DIVMTQSPLSLPVTPGEPASISCQASESLVHSNRNTYLHWYLQKPGQSPQLLIYKVSNRFSGVPDRFSGSGSGTDFTLKISRVEAEDVGVYYCSQNTHVPPTFGQGTKVEIERTVAAPSVFIFPPSDEQLKSGTASVVCLLNNFYPREAKVQWKVDNALQSGNSQESVTEQDSKDSTYSLSSTLTLSKADYEKHKVYACEVTHQGLSSPVTKSFNRGEC
notes: also called Ho Ab N325_06M
Ho/Con_2aR: 124 % (GpH7-B3/GpL16-k0 = 100)

B4: GpH7-B3 variant N325_08L/GpL16-k0 (antibody, human IgG1, kappa)
heavy: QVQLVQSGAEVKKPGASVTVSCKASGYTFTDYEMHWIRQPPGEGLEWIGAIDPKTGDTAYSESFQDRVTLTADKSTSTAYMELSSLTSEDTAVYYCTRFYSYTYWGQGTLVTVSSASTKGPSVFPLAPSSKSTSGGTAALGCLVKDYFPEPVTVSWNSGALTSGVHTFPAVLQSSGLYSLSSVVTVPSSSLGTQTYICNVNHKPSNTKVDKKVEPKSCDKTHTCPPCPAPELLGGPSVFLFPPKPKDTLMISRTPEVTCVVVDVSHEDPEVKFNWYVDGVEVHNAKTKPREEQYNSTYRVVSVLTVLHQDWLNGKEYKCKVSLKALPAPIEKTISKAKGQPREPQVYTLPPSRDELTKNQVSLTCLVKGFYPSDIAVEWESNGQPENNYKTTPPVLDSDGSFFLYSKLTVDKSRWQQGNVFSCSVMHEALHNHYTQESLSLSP
light: DIVMTQSPLSLPVTPGEPASISCQASESLVHSNRNTYLHWYLQKPGQSPQLLIYKVSNRFSGVPDRFSGSGSGTDFTLKISRVEAEDVGVYYCSQNTHVPPTFGQGTKVEIERTVAAPSVFIFPPSDEQLKSGTASVVCLLNNFYPREAKVQWKVDNALQSGNSQESVTEQDSKDSTYSLSSTLTLSKADYEKHKVYACEVTHQGLSSPVTKSFNRGEC
notes: also called Ho Ab N325_08L
Ho/Con_2aR: 95 % (GpH7-B3/GpL16-k0 = 100)

B7: GpH7-B3 variant L328_10E/GpL16-k0 (antibody, human IgG1, kappa)
heavy: not shown
light: DIVMTQSPLSLPVTPGEPASISCQASESLVHSNRNTYLHWYLQKPGQSPQLLIYKVSNRFSGVPDRFSGSGSGTDFTLKISRVEAEDVGVYYCSQNTHVPPTFGQGTKVEIERTVAAPSVFIFPPSDEQLKSGTASVVCLLNNFYPREAKVQWKVDNALQSGNSQESVTEQDSKDSTYSLSSTLTLSKADYEKHKVYACEVTHQGLSSPVTKSFNRGEC
notes: also called Ho Ab L328_10E
Ho/Con_2aR: 48.1 % (GpH7-B3/GpL16-k0 = 100)

B9: GpH7-B3 variant N325_20W/GpL16-k0 (antibody, human IgG1, kappa)
heavy: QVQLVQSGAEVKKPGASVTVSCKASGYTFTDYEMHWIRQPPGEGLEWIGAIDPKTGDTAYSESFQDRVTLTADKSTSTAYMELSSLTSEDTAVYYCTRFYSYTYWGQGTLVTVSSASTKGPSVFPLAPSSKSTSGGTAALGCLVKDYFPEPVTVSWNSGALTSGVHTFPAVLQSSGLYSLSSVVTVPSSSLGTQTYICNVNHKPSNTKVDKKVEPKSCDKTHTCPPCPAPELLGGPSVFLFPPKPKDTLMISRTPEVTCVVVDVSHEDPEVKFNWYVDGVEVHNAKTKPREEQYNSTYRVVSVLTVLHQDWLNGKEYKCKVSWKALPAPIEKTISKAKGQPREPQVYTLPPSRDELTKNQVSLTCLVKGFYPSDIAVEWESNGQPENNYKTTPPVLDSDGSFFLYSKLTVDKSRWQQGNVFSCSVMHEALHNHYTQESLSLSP
light: DIVMTQSPLSLPVTPGEPASISCQASESLVHSNRNTYLHWYLQKPGQSPQLLIYKVSNRFSGVPDRFSGSGSGTDFTLKISRVEAEDVGVYYCSQNTHVPPTFGQGTKVEIERTVAAPSVFIFPPSDEQLKSGTASVVCLLNNFYPREAKVQWKVDNALQSGNSQESVTEQDSKDSTYSLSSTLTLSKADYEKHKVYACEVTHQGLSSPVTKSFNRGEC
notes: also called Ho Ab N325_20W
Ho/Con_2aR: 56 % (GpH7-B3/GpL16-k0 = 100)

B10: GpH7-B3 variant N325_15Y/GpL16-k0 (antibody, human IgG1, kappa)
heavy: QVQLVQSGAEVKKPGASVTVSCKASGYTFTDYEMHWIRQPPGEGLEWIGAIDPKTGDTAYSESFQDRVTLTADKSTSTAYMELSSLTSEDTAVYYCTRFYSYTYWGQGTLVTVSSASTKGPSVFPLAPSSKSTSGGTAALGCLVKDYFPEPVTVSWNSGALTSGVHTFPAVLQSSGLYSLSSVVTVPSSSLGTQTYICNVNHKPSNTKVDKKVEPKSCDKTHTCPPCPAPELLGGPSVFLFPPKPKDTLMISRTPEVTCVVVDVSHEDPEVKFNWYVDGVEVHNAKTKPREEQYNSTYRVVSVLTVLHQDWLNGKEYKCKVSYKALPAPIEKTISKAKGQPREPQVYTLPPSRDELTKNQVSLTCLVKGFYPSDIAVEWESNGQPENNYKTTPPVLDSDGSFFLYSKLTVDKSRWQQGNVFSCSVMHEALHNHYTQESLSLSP
light: DIVMTQSPLSLPVTPGEPASISCQASESLVHSNRNTYLHWYLQKPGQSPQLLIYKVSNRFSGVPDRFSGSGSGTDFTLKISRVEAEDVGVYYCSQNTHVPPTFGQGTKVEIERTVAAPSVFIFPPSDEQLKSGTASVVCLLNNFYPREAKVQWKVDNALQSGNSQESVTEQDSKDSTYSLSSTLTLSKADYEKHKVYACEVTHQGLSSPVTKSFNRGEC
notes: also called Ho Ab N325_15Y
Ho/Con_2aR: 42.6 % (GpH7-B3/GpL16-k0 = 100)

B12: GpH7-B3 variant L328_13S/GpL16-k0 (antibody, human IgG1, kappa)
heavy: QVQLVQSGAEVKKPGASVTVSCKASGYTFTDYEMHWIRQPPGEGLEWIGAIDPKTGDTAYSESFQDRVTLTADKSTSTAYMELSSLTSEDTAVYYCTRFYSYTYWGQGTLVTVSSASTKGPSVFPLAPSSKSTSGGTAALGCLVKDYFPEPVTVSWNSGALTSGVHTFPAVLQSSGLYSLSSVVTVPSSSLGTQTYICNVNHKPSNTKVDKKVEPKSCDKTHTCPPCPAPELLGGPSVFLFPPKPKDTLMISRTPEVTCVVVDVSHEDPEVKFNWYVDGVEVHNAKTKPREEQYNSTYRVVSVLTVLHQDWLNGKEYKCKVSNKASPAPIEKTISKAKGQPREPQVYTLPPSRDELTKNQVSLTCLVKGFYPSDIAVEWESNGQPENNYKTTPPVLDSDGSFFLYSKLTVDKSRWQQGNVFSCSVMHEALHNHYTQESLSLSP
light: DIVMTQSPLSLPVTPGEPASISCQASESLVHSNRNTYLHWYLQKPGQSPQLLIYKVSNRFSGVPDRFSGSGSGTDFTLKISRVEAEDVGVYYCSQNTHVPPTFGQGTKVEIERTVAAPSVFIFPPSDEQLKSGTASVVCLLNNFYPREAKVQWKVDNALQSGNSQESVTEQDSKDSTYSLSSTLTLSKADYEKHKVYACEVTHQGLSSPVTKSFNRGEC
notes: also called Ho Ab L328_13S
Ho/Con_2aR: 108 % (GpH7-B3/GpL16-k0 = 100)

B15: GpH7-B3 variant L328_14T/GpL16-k0 (antibody, human IgG1, kappa)
heavy: not shown
light: DIVMTQSPLSLPVTPGEPASISCQASESLVHSNRNTYLHWYLQKPGQSPQLLIYKVSNRFSGVPDRFSGSGSGTDFTLKISRVEAEDVGVYYCSQNTHVPPTFGQGTKVEIERTVAAPSVFIFPPSDEQLKSGTASVVCLLNNFYPREAKVQWKVDNALQSGNSQESVTEQDSKDSTYSLSSTLTLSKADYEKHKVYACEVTHQGLSSPVTKSFNRGEC
notes: also called Ho Ab L328_14T
Ho/Con_2aR: 118 % (GpH7-B3/GpL16-k0 = 100)

B16: GpH7-B3 variant L235_15Y/GpL16-k0 (antibody, human IgG1, kappa)
heavy: not shown
light: DIVMTQSPLSLPVTPGEPASISCQASESLVHSNRNTYLHWYLQKPGQSPQLLIYKVSNRFSGVPDRFSGSGSGTDFTLKISRVEAEDVGVYYCSQNTHVPPTFGQGTKVEIERTVAAPSVFIFPPSDEQLKSGTASVVCLLNNFYPREAKVQWKVDNALQSGNSQESVTEQDSKDSTYSLSSTLTLSKADYEKHKVYACEVTHQGLSSPVTKSFNRGEC
notes: also called Ho Ab L235_15Y
Ho/Con_2aR: 111 % (GpH7-B3/GpL16-k0 = 100)

B17: GpH7-B3 variant N325_13S/GpL16-k0 (antibody, human IgG1, kappa)
heavy: not shown
light: DIVMTQSPLSLPVTPGEPASISCQASESLVHSNRNTYLHWYLQKPGQSPQLLIYKVSNRFSGVPDRFSGSGSGTDFTLKISRVEAEDVGVYYCSQNTHVPPTFGQGTKVEIERTVAAPSVFIFPPSDEQLKSGTASVVCLLNNFYPREAKVQWKVDNALQSGNSQESVTEQDSKDSTYSLSSTLTLSKADYEKHKVYACEVTHQGLSSPVTKSFNRGEC
notes: also called Ho Ab N325_13S
Ho/Con_2aR: 126 % (GpH7-B3/GpL16-k0 = 100)

B18: GpH7-B3 variant N325_07I/GpL16-k0 (antibody, human IgG1, kappa)
heavy: not shown
light: DIVMTQSPLSLPVTPGEPASISCQASESLVHSNRNTYLHWYLQKPGQSPQLLIYKVSNRFSGVPDRFSGSGSGTDFTLKISRVEAEDVGVYYCSQNTHVPPTFGQGTKVEIERTVAAPSVFIFPPSDEQLKSGTASVVCLLNNFYPREAKVQWKVDNALQSGNSQESVTEQDSKDSTYSLSSTLTLSKADYEKHKVYACEVTHQGLSSPVTKSFNRGEC
notes: also called Ho Ab N325_07I
Ho/Con_2aR: 77 % (GpH7-B3/GpL16-k0 = 100)

Source: patent US20150344570A1 (published 2015)
